According to the supplement of paper PMC9170038:

Tested on: K4 kissing-loop RNA reporter
Test: apparent KD of K4 kissing-loop reporter; higher = weaker reporter binding
Settings: Eterna round: R107
Description: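 RNA-MaP round R107: designed RNA switches with theophylline, tryptophan, arginine or FMN aptamers are transcribed on-chip within common flanks. They are titrated with a labelled K4 kissing-loop RNA reporter in RNA-MaP buffer (100 mM Tris pH 7.5, 80 mM KCl, 4 mM MgCl2), without ligand or with the indicated ligand. Median apparent KD per design.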

[1] = input ligand: theophylline 20 uM
[2] = input ligand: tryptophan 2.4 mM
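Note: bound reporter read as fluorescence of individual clusters on recovered sequencing chips by microscopy, with normalized cluster intensities fitted with a binding model.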

| Sequence | apparent KD of K4 kissing-loop reporter (input ligand: FMN 200 uM) | apparent KD of K4 kissing-loop reporter (input ligand: arginine 13.2 mM) | apparent KD of K4 kissing-loop reporter (input ligand: none) | apparent KD of K4 kissing-loop reporter [1] | apparent KD of K4 kissing-loop reporter [2] |
| --- | --- | --- | --- | --- | --- |
| AAGUUUUAUAAACUCAUGGUUUCGUCAGAUACCAGCCUCGAGAGAGGCCCUUGGCAGCUGCAUGAGUGAUGUUCAUGUUCGAAGA [KL_XTheoA8] | 253 nM | 260 nM | 374 nM | 239 nM | 251 nM |
| AAUAAAAUCACGGCCGCCACUGAAUAAUUACAAAGUAGUGAUGUUACUUUACAUAUCUUAUUUAACAGGACCGGGUGAAUAUUUA [JR_ExcTryptoB_Sub007] | 78.6 nM | 70.2 nM | 76.2 nM | 69.7 nM | 78.3 nM |
| AAUAAAAUCACGGCCGCCACUGAUUAUUUUAUUAGGAGUGAUGUUCCUAUGACAAUAUACCUUAACAGGACCGGGUGAAUAUUUA [JR_ExcTryptoB_Sub010] | 87.8 nM | 89.6 nM | 86.1 nM | 94.4 nM | 80.8 nM |
| AAUAAGGAGUGAUGUUCCAAGUGAUGUUAACGAGGACCGGUACGGCCGCCACUCGAUACGGCCGGAAAGUAAGAUAAACUACAAU [Same State - Tryptophan A (Freestyle 3)] | 70.5 nM | 51.3 nM | 60.8 nM | 55.9 nM | 54.6 nM |
| AAUAUAGUGAUGUUAUAUAAGAAGGAGUUACGAGGACCGGUACGGCCGCCACUCGAAACGAGUGAAGAAGGAGGAAGGAGGAGGA [SSTRyptA.A] | 479 nM | 300 nM | 453 nM | 409 nM | 366 nM |
| AAUAUCUAGUAUAUAUUUAAUAAAACAGAUACCAGUGAUAAUAGACACCCUUGGCAGCUGGACGAGUGAUGUUCGUAUAUAUUAA [JR_SSTheophyA_Sub007] | 90.7 nM | 153 nM | 108 nM | 184 nM | 66.8 nM |
| AAUGCAUAGUGAAGGAGCGCGAUAAGCAGUGAUGUUGCUUAGCUAUUAUUCAUUUUUUUAACGCAGGUAGGUCGCACUUUGCAUA [JR_ExcArginiB_Sub016] | 166 nM | 142 nM | 135 nM | 148 nM | 144 nM |
| AAUGCAUUGUGAAGGAGCGCGUUAAGCAGUGAUGUUGCUUUUAUAUUUUUCAGUUUUAUAUCGCAGGUAGGUCGCACUUUGCAUA [JR_Nu_SSArginiB_Sub029] | 172 nM | 158 nM | 173 nM | 192 nM | 148 nM |
| AAUGUACAAGUGAUGUUUGUACUUUCCGAAGGAGCGUCUAAUAAGACAGGUAGGUCGCGGAUACUCUAAAUAAUCAGGUCAUUGA [#06 K4 Arginine A Exclusion] | 89.9 nM | 89 nM | 79.8 nM | 80.6 nM | 77.4 nM |
| AAUUUACAAUAAUCAUUUAAAGGAUCAGAAGGAGCGUGUUAUAACACAGGUAGGUCGCUGAGCGAGUGAUGUUCGCUAUAUACAA [JR_ExcArginiA_Sub002] | 76.3 nM | 97.7 nM | 90.8 nM | 99.8 nM | 64.5 nM |
| AAUUUACAUUAAUUAUUUAAAGGUUCAGAAGGAGCGUGAAUUAACACAGGUAGGUCGCUGAGCGAGUGAUGUUCGCUAUAUACUA [JR_ExcArginiA_Sub003] | 62.7 nM | 68.9 nM | 65.7 nM | 91.1 nM | 49.4 nM |
| AAUUUAUAUUUAUUCUUUAAAUGUUCAGAAGGAGCGUGAAUUAUCACAGGUAGGUCGCUGAGCUAGUGAUGUUGGCUAUAUACUA [whbob_Ex_Arginine_A_2t124] | 167 nM | 219 nM | 202 nM | 217 nM | 138 nM |
| ACAGUCGGCUGUGAUACCAGUCGUAUUACAACAUGUUGCAGUGAUGUUGCGAGAUAGGAUGACCCUUGGCAGCACUCAGUACGAC [Same State Theophylline B GF10] | 208 nM | 135 nM | 222 nM | 252 nM | 209 nM |
| ACAUUAGGCACGGCCGCCACUGGAUUAAGAUCUUAAGUAUUAAUUAACAUGAGUGAUGUUCAUGCCAGGACCGGGUGACUACCAU [KL-SSTryp-B11] | 275 nM | 222 nM | 261 nM | 267 nM | 252 nM |
| ACCACCAGCCGCACGAUACACGGGCAUUACCGAGGACCGGUACGGCCGCCACUCGCCCGCACGCUGGAUCGAGUGAUGUUCGAUC [theeternabot_sameState_KL_Trp_A_15] | 358 nM | 334 nM | 384 nM | 371 nM | 326 nM |
| ACCAUCAAAGAUGGCCUCGACACCGCUGAUACCAGAGUGAAAACACUCCCUUGGCAGCAGGUGAGUGAUGUUCACAGUCGAAGGA [Omel KL Theo A SS B v1] | 492 nM | 464 nM | 641 nM | 538 nM | 470 nM |
